# Experimental data reported in PMC7918695, “TFF1 Induces Aggregation and Reduces Motility of Helicobacter pylori” (International Journal of Molecular Sciences, 2021).
# B1: human recombinant protein TFF1 (trefoil factor 1) (natural protein, UniProt P04155 25-84, looked up)
# chain: EAQTETCTVAPRERQNCGFPGVTPSQCANKGCCFDDTVRGVPWCFYPNTIDVPPEEECEF
# notes: Trefoil factor 1 (TFF1), human, recombinant from the hrTFF1-pIVEX vector; It is probably the mature secreted TFF1 without its signal peptide (surmised); The homodimer is held by disulfide bonds, since it is seen only under non-reducing conditions; also called hrTFF1; hTFF1; source: E. coli BLR (DE3) pLysS, purified (HisTrap HP, Factor Xa digestion, second HisTrap pass)
# Biological target: the molecule itself
# Experiment: non-reducing SDS-PAGE with Western blot; purified hrTFF1 loaded without reducing agents to preserve the disulfide bonds; probed with polyclonal anti-TFF1 antibody
protein,measurement,value
B1,stoichiometry N,2
